The subject of data set [1] is 51Cr-labeled recipient LB. Put plainly: Inhibition of LB-directed cytotoxicity by granule exocytosis pathway blockers. The following applies: CMA 1, 10, 100 nM/L for 2 h or SrCl2 5, 25, 50 mM/L for 18 h; one mean given for either reagent; FIG. 5 E:T 5:1. The source says: Cytolytic activity of a CTL refers to the secretion of the contents of secretory granules into the immediate vicinity of the target cell to which it attaches. The granules contain perforins, various lysosomal enzymes, and calcium binding proteins that destroy the target cell.

The test system of data set [2] is JY (A2+) and 221 (A2-) 51Cr-labeled target cells.
Data set [3] has the same test system. The experiment in a line: 51Cr-release assay of HLA-A2 specific CTL activity induced in purified CD8+ TL by dendritic cells.
Data set [4] concerns class I molecules, TAP transporters, PA28, immunoproteasomes in monocytes/DC. The experiment in a line: Expression of class I molecules, TAP transporters, PA28 and immunoproteasomes by flow cytometry and immunoprecipitation. It is filed as cell-based, human. As to conditions: treatment of immature DC. From the text: To determine if the differences observed between DC treated with LPS, TNF-α, or CD40L in inducing CTL activity of CD8^+ T cells were due to differences in antigen processing and presentation capacity of monocytes, immature DC, and mature DC, the expression levels of class I molecules, TAP transporters, PA28 (an immunoproteasome regulator), and immunoproteasomes were examined by flow cytometry (FACScan, Benton Dickenson, Milano, Italy) and immunoprecipitation with appropriate antibodies. […] The level of expression of class I molecules was further increased by two fold upon treatment with LPS, CD40L, or TNF-α.
(In general: Flow cytometry measures light scatter and fluorescence of single cells or particles in a stream.)

`C/C=C/[C@H]1O[C@@](O)([C@@H](C)[C@H](O)[C@H](C)[C@H]2OC(=O)/C(OC)=C/C(C)=C/[C@@H](C)[C@@H](O)[C@@H](CC)[C@@H](O)[C@H](C)C/C(C)=C/C=C/[C@@H]2OC)C[C@@H](O[C@H]2C[C@@H](O)[C@H](OC(N)=O)[C@@H](C)O2)[C@@H]1C` [CMA, concanamycin A]: in data set [1], the “mean inhibition of LB-directed cytotoxicity” value stood at 87%.

For the molecule “IL-4: lymphokine added to the CTL induction culture”, the “effect of addition on cytotoxic activity” value in data set [2] is “no effect”.

“IL-6: lymphokine added to the CTL induction culture”: the “effect of addition on cytotoxic activity” value in data set [2] was “no effect”.

Turning to IL-7: cytokine interleukin-7, in data set [2], the “effect on cytotoxic activity induced by immature DC” value is on record as “no effect” and the “enhancement of cytotoxic activity” value is on record as “approximately three fold”.

Turning to IL-12: cytokine interleukin-12, the “substitution for CD40L in inducing cytotoxic activity” value in data set [2] was “two of the four”.

Turning to lipopolysaccharide [LPS], the “induction of cytotoxic activity from purified CD8+ T cells by treated DC” value in data set [3] (DC treated with LPS 20 ng/ml, TNF-α 20 ng/ml (40 h) or irradiated CD40L-transfected cells, FIG. 1A) is given as “only CD40L treated DC were capable of inducing cytotoxic activity”. Besides, the “further increase of expression of class I molecules” value (“further increase” below) in data set [4] is on record as “two fold”.

Consider tumor necrosis factor-α [TNF-α], for which the “further increase” value in data set [4] is “two fold”.

B1: CD40L: CD40 Ligand, supplied as irradiated CD40L-transfected cells added to immature DC; dendritic cell maturation factor (protein, UniProt P29965 1-261, looked up)
chain: MIETYNQTSPRSAATGLPISMKIFMYLLTVFLITQMIGSALFAVYLHRRLDKIEDERNLHEDFVFMKTIQRCNTGERSLSLLNCEEIKSQFEGFVKDIMLNKEETKKENSFEMQKGDQNPQIAAHVISEASSKTTSVLQWAEKGYYTMSNNLVTLENGKQLTVKRQGLYYIYAQVTFCSNREASSQAPFIASLCLKSPGRFERILLRAANTHSSAKPCGQQSIHLGGVFELQPGASVFVNVTDPSQVSHGTGFTSFGLLKL
modifications: full-length expressed on irradiated transfected cells
notes: CD40 Ligand, supplied as irradiated CD40L-transfected cells added to immature DC; dendritic cell maturation factor
Regarding B1, in data set [3] (CD40L-treated DC, four CD8+ populations tested), the “CD8+ cell populations in which CTL activity was detected” value is reported as “three of the four”. For the same molecule, in data set [4], the “further increase” value is recorded as “two fold”.

Source of the values: patent US20020119121A1, “Compositions and methods for inducing specific cytolytic T cell responses” (priority 2000, published 2002).
